Laboratory results reported in patent US20050282743A1, “Molecular interactions in cells” (Arbor Vita Corporation, priority 2001, published 2005).
Where two headings read alike, the source gives them in different places.

Key:
Experiment in all cases: G' assay
[1] = biological target: T1, GST-EZRIN Binding Protein 50 PDZ domain 2 (Homo sapiens (Human)), O14745
T1 chain: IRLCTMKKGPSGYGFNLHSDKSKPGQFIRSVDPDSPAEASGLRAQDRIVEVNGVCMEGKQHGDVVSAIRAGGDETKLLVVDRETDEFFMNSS

[2] = biological target: GST-KIAA0147 PDZ domain 1 (Homo sapiens (Human)), Q14160
[3] = biological target: GST-KIAA1222 PDZ domain 1 (Rattus norvegicus (Rat)), O35867
[4] = biological target: T2, GST-NeDLG PDZ domain 2 (Rattus norvegicus (Rat)), Q62936
T2 chain: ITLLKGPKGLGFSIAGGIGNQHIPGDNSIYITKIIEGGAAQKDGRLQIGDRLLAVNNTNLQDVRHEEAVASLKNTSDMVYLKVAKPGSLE

[5] = biological target: GST-BAI-1 Associated Protein PDZ domain 3 (Homo sapiens (Human)), Q96QZ7
[6] = biological target: T3, GST-NeDLG PDZ domain 1 (Mus musculus (Mouse)), P70175
T3 chain: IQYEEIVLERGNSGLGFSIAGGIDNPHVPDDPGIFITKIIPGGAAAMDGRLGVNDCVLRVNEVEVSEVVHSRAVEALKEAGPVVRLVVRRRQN

[7] = biological target: GST-PIST PDZ domain 1 (Mus musculus (Mouse)), Q8BH60
[8] = biological target: T4, GST-Connector Enhancer PDZ domain 1 (Homo sapiens (Human)), Q969H4
T4 chain: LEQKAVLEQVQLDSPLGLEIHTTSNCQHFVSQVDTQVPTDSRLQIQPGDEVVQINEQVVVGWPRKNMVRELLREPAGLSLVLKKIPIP

[9] = biological target: T5, GST-MUPP1 PDZ domain 13 (Homo sapiens (Human)), O75970
T5 chain: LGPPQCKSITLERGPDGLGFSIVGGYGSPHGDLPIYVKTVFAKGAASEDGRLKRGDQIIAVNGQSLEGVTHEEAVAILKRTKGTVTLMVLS

[10] = biological target: T6, GST-PSD95 PDZ domain 3 (Homo sapiens)
T6 chain: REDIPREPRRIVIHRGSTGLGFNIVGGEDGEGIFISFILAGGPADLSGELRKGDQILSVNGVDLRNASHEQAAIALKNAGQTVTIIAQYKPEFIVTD

[11] = biological target: T7, GST-KIAA0147 PDZ domain 4 (Homo sapiens (Human)), Q14160
T7 chain: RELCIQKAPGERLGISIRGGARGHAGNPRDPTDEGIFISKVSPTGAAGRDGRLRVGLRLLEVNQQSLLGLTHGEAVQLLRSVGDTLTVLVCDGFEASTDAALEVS

[12] = biological target: GST-DLG2 PDZ domain 1 (Homo sapiens (Human)), Q15700
[13] = biological target: T8, GST-GRIP 1 PDZ domain 5 (Homo sapiens (Human)), Q9Y3R0
T8 chain: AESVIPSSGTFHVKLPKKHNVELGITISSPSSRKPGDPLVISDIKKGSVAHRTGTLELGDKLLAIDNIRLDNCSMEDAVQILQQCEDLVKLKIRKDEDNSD

[14] = biological target: T9, GST-MUPP1 PDZ domain 1 (Homo sapiens (Human)), O75970
T9 chain: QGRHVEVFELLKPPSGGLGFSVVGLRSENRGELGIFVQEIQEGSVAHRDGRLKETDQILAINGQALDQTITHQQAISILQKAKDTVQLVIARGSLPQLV

[15] = biological target: T10, GST-MUPP1 PDZ domain 8 (Homo sapiens (Human)), O75970
T10 chain: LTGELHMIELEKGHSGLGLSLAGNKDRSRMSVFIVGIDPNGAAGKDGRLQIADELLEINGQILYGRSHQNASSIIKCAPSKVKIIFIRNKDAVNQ

[16] = biological target: T11, GST-KIAA0340 PDZ domain 1 (Homo sapiens (Human)), Q86UR5
T11 chain: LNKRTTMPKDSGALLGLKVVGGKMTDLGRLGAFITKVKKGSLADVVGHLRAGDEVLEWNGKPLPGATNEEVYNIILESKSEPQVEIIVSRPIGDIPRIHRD

[17] = biological target: T12, GST-SITAC-18 PDZ domain 1 (Homo sapiens (Human)), Q9H190
T12 chain: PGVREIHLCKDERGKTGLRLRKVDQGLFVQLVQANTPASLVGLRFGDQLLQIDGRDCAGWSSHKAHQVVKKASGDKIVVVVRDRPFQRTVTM

[18] = biological target: T13, GST-DLG5 PDZ domain 2 (Homo sapiens (Human)), Q8TDM6
T13 chain: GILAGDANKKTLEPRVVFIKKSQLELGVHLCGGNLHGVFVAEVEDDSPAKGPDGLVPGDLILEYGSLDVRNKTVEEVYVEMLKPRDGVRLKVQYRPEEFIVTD

[19] = biological target: GST-Unnamed Protein PDZ domain 2 [GST: P08515]
[20] = biological target: T14, GST-SITAC-18 PDZ domain 2 (Homo sapiens (Human)), Q9H190
T14 chain: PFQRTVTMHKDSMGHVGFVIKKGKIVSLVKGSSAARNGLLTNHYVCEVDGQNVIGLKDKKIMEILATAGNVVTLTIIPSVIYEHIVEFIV

[21] = biological target: T15, GST-Syntrophin 1 alpha PDZ domain 1 (Homo sapiens (Human)), Q13424
T15 chain: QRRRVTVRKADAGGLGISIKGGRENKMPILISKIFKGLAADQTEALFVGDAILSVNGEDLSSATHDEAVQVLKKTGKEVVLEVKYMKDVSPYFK

[22] = biological target: T16, GST-GRIP 1 PDZ domain 3 (Homo sapiens (Human)), Q9Y3R0
T16 chain: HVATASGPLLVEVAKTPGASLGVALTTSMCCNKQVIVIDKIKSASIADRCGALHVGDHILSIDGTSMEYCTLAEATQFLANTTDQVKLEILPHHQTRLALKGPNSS
Note: key of the grades not given here.

Chain of GST-BAI-1 Associated Protein PDZ domain 3 (Homo sapiens (Human)), Q96QZ7 (Q96QZ7 other isoform, or with tags, fused parts or gaps): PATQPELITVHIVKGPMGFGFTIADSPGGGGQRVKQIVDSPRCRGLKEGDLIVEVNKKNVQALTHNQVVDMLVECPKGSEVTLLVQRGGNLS
Chain of GST-KIAA0147 PDZ domain 1 (Homo sapiens (Human)), Q14160 (Q14160 other isoform, or with tags, fused parts or gaps): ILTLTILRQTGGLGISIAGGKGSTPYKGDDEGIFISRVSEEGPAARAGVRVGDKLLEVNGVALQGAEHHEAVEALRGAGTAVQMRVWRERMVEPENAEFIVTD
Chain of GST-Unnamed Protein PDZ domain 2 [GST: P08515] (P08515 whole entry, the tested form may be a part): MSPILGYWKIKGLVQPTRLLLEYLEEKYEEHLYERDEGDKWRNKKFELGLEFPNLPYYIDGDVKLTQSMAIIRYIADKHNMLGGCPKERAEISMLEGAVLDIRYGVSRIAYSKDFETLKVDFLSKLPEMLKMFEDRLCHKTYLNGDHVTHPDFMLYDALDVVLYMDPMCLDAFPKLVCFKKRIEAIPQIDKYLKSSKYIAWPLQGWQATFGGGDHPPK
Chain of GST-KIAA1222 PDZ domain 1 (Rattus norvegicus (Rat)), O35867 (O35867 499-598, tags or fused parts left off): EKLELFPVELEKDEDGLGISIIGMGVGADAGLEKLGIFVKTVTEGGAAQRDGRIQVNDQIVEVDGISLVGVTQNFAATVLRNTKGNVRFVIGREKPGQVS

B1: KIA 1481 (peptide)
peptide: PIPAGGCTFSGIFPTLTSPL
modifications: not checked
- Classification [1]: 2 A450 class
- Classification [2]: 2 A450 class

B2: AdenoE4 typ9 (peptide)
peptide: VGTLLLERVIFPSVKIATLV
modifications: not checked
- Classification [3]: 1 A450 class
- Classification [4]: 5 A450 class
- Classification [5]: 5 A450 class
- Classification [6]: 1 A450 class
- Classification [7]: 1 A450 class
- Classification [8]: 3 A450 class

B3: TAX (peptide)
peptide: QISPGGLEPPSEKHFRETEV
modifications: not checked
- Classification [9]: 5 A450 class
- Classification [4]: 5 A450 class
- Classification [5]: 1 A450 class
- Classification [10]: 1 A450 class
- Classification [11]: 1 A450 class
- Classification [2]: 5 A450 class
- Classification [12]: 2 A450 class
- Classification ([8]; remark: other sources report otherwise): 1 A450 class

B4: CSPG4 (chondroitin sulfae proteoglycan 4, melanoma-associated) (peptide)
peptide: ELLQFCRTPNPALKNGQYWV
modifications: not checked
- Classification [13]: 1 A450 class
- Classification [14]: 2 A450 class
- Classification [15]: 2 A450 class

B5: alpha-2A Adrenergic receptor (peptide)
peptide: HDFRRAFKKILARGDRKRIV
modifications: not checked
- Classification [9]: 1 A450 class
- Classification [16]: 1 A450 class
- Classification [17]: 4 A450 class
- Classification [15]: 1 A450 class
- Classification [18]: 1 A450 class
- Classification [19]: 1 A450 class
- Classification [20]: 4 A450 class

B6: NMDA Glutamate Receptor 2C (cysteine-free) (peptide)
peptide: TQGFPGPATWRRISSLESEV
modifications: not checked
- Classification [9]: 5 A450 class
- Classification [4]: 5 A450 class
- Classification [5]: 1 A450 class
- Classification [10]: 2 A450 class
- Classification [6]: 2 A450 class
- Classification [2]: 5 A450 class
- Classification [12]: 4 A450 class
- Classification [21]: 4 A450 class

B7: a-actinin 2 (peptide)
peptide: VPGALDYAAFSSALYGESDL
modifications: not checked
- Classification [2]: 2 A450 class
- Classification [21]: 3 A450 class

B8: LPAP (peptide)
peptide: AWDDSARAAGGQGLHVTAL
modifications: not checked
- Classification [1]: 4 A450 class
- Classification [2]: 3 A450 class
- Classification [7]: 1 A450 class
- Classification [22]: 1 A450 class
- Classification [19]: 3 A450 class

B9: ephrin B2 (peptide)
peptide: ILNSIQVMRAQMNQIQSVEV
modifications: not checked
- Classification [16]: 2 A450 class
- Classification [4]: 2 A450 class
- Classification [13]: 1 A450 class
- Classification [11]: 2 A450 class
- Classification [17]: 3 A450 class
- Classification [22]: 1 A450 class
- Classification [18]: 1 A450 class
- Classification [20]: 3 A450 class

B10: catenin - delta 2 (peptide)
peptide: PYSELNYETSHYPASPDSWV
modifications: not checked
- Classification [5]: 1 A450 class
- Classification [11]: 1 A450 class

B11: MINT-1 (peptide)
peptide: KTMPAAMYRLLTAQEQPVYI
modifications: not checked
- Classification [3]: 1 A450 class
- Classification [14]: 1 A450 class
